Reference: patent US20220088117

Test system: T1, Serp-1 (myxomavirus-derived serine protease inhibitor)
T1 sequence: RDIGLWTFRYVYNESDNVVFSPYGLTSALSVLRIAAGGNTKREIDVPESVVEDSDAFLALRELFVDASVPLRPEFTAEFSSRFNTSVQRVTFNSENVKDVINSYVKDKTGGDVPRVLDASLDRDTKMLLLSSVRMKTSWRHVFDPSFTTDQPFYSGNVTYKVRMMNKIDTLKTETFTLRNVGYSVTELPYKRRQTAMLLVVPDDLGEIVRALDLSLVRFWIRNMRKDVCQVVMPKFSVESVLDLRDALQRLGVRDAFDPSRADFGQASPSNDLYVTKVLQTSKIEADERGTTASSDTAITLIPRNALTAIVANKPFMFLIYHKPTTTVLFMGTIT

urokinase-type plasminogen activator (uPA)
uPA activity in an in vitro substrate conversion assay: Serp-1 inhibition of uPA activity in an in vitro substrate conversion assay is not affected by the presence of a broad-spectrum antibiotic cocktail
